From patent US20230151091A1 (NEW YORK UNIVERSITY, published 2023)
Changes are numbered by the printed parent chain.

T1: mFz: Fz domain and C-terminal flanking sequence of mouse MuSK (D307 to T494) with C-terminal Avi- and … (mouse, UniProt Q61006 307-494, limits assumed, biotinylated in vitro using the BirA enzyme)
T1 construct: also called mouse Fz; not shown: Avi- and His6-tags
T1 sequence (looked up): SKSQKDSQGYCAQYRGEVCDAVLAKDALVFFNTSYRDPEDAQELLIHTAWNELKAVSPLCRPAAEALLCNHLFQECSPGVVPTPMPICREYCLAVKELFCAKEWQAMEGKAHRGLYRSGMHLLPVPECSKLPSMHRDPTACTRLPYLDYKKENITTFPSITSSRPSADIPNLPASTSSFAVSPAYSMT

T2: hFz: Fz domain and C-terminal flanking sequence of human MuSK (K314-T495) with C-terminal Avi- and His6-tags (human, UniProt O15146 314-495, biotinylated in vitro using the BirA enzyme)
T2 construct: also called human Fz; not shown: Avi- and His6-tags
T2 sequence: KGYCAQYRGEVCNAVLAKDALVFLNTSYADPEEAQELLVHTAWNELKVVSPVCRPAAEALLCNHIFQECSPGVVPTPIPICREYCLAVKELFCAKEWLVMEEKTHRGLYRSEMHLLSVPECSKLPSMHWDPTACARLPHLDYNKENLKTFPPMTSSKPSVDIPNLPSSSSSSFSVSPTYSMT

T3: mouse MuSK (mouse, UniProt Q61006 22-494, limits assumed)
T3 construct: Coated on ELISA plates or on the Biacore chip; also called full length mouse MuSK; mouse MuSK (in house produced in HEK293 cells)
T3 sequence (looked up): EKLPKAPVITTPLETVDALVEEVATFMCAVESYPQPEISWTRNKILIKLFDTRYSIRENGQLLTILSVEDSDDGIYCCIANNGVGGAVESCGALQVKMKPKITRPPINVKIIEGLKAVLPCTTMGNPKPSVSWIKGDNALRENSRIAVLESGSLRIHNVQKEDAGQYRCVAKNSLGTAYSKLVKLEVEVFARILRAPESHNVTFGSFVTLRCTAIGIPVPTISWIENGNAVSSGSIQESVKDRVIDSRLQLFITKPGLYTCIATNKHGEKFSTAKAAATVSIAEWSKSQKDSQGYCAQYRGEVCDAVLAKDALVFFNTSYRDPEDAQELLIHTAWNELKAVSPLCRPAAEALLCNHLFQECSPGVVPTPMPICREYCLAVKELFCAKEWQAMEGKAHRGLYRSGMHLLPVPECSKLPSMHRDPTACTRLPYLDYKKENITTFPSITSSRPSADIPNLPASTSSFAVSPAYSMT

T4: human MuSK (human, UniProt O15146 24-495)
T4 construct: Recombinant protein coated on ELISA plates (R&D Systems cat. 10189-MK) or on the Biacore chip; also called human muscle-specific tyrosine protein kinase; full length human MuSK
T4 sequence: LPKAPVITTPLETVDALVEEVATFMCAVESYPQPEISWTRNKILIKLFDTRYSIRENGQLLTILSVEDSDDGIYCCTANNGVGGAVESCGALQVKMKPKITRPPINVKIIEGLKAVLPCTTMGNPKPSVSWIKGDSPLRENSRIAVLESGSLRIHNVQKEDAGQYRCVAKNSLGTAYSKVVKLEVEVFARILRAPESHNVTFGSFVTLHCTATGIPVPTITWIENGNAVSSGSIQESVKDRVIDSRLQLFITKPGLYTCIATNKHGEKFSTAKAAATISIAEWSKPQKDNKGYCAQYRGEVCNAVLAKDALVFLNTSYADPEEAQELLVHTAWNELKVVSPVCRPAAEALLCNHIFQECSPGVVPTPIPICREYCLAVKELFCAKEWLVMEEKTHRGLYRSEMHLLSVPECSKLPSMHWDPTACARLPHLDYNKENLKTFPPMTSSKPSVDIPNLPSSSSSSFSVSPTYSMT

T5: mECD: full-length extracellular region of mouse MuSK (E22 to T494) with C-terminal Avi- and His6-tags (mouse, UniProt Q61006 22-494, biotinylated in vitro using the BirA enzyme)
T5 construct: range 22-494; also called mouse ECD; not shown: Avi- and His6-tags
T5 sequence (looked up): T3 sequence (looked up)

T6: hECD: full-length extracellular region of human MuSK (E22 to T495) with C-terminal Avi- and His6-tags (human, UniProt O15146 22-495, biotinylated in vitro using the BirA enzyme)
T6 construct: also called human ECD; not shown: Avi- and His6-tags
T6 sequence: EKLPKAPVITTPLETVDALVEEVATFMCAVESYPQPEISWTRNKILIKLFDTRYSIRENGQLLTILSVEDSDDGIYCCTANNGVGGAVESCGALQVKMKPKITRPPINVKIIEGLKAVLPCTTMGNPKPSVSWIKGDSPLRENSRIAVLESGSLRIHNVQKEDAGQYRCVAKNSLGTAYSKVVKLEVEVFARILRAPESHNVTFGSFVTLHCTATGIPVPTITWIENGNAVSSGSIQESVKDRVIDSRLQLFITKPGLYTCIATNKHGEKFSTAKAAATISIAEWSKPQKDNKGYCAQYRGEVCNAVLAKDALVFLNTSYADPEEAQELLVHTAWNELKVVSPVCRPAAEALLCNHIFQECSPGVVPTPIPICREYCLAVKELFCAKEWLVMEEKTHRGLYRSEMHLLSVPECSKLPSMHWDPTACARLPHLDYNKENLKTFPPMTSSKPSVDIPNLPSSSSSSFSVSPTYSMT

B1: X17 Fab (Fab, V domains shown)
VH: EVQLVESGGGLVQPGGSLRLSCAASGFTISYSSIHWVRQAPGKGLEWVASIYSSSGSTYYADSVKGRFTISADTSKNTAYLQMNSLRAEDTAVYYCARGDHGYYVFGYLGMDYWGQGTLVTVSS
VL: DIQMTQSPSSLSASVGDRVTITCRASQSVSSAVAWYQQKPGKAPKLLIYSASSLYSGVPSRFSGSRSGTDFTLTISSLQPEDFATYYCQQSYKPGALITFGQGTKVEIK
notes: Fab format
B2: mIgG2a-X3 (antibody, V domains shown)
VH: EVQLVESGGGLVQPGGSLRLSCAASGFTISSSSIHWVRQAPGKGLEWVASISSSSGYTYYADSVKGRFTISADTSKNTAYLQMNSLRAEDTAVYYCARSWYEMWMSGYFGFDYWGQGTLVTVSS
VL: DIQMTQSPSSLSASVGDRVTITCRASQSVSSAVAWYQQKPGKAPKLLIYSASSLYSGVPSRFSGSRSGTDFTLTISSLQPEDFATYYCQQSSSSLITFGQGTKVEIK
notes: mouse IgG2a format; also called X3 in mouse IgG2a format
B3: hIgG1-X2 (antibody, V domains shown)
VH: EVQLVESGGGLVQPGGSLRLSCAASGFTVSSSSIHWVRQAPGKGLEWVASISSSYGSTSYADSVKGRFTISADTSKNTAYLQMNSLRAEDTAVYYCARSEGDRYVSGYMGMDYWGQGTLVTVSS
VL: B2 VL with S92G, S93V, S94W
notes: human IgG1 Fc containing LALA mutations; also called hIgG-X2; X2 in the human IgG1 format
B4: hIgG1-X3 (antibody, V domains shown)
VH: B2 VH
VL: B2 VL
notes: human IgG1 Fc containing LALA mutations; also called X3 in human IgG1 format

How the values were obtained:
[1] = target: T1, mFz: Fz domain and C-terminal flanking …; assay: bead-binding titration, Fab format: antigen immobilized on streptavidin beads, MFI by flow cytometry, curve is the 1:1 fit
[2] = target: T2, hFz: Fz domain and C-terminal flanking …; assay: as above
mouse MuSK [3] = target: T3, mouse MuSK; assay: Biacore T200, MuSK on chip (200RU), 22.2 nM Fab, dissociation pH 7.4
Protocol: (§1) In order to study pH dependent binding of the antibodies described herein to MuSK, a Biacore T200 was used. Briefly, a CMS chip was coated with human and mouse MuSK (200RU) and 22.2 nM of Fab was applied and kinetic parameters calculated. Association was done at pH7.4, dissociation was done at pH 7.4 and also at pH 5.5. The following Fabs were tested, X2, X2m4, X3, X9, X17, 3B2 and 3B2g2m1 (Table 10 and FIG. 23). […] Binding affinity at pH 5.5 is very low, resulting in a rapid dissociation at endosomal pH allowing 3B2g2m1 to recycle.

human MuSK [4] = target: T4, human MuSK; assay: as above
Protocol: as §1

mouse MuSK [5] = target: T3, mouse MuSK; assay: Biacore T200, off rate at pH 5.5 against pH 7.4
Protocol: as §1

human MuSK [6] = target: T4, human MuSK; assay: Biacore T200, off rate at pH 5.5 against pH 7.4
Protocol: as §1

[7] = target: T1, mFz: Fz domain and C-terminal flanking …; assay: bead-binding assay, Fab format: biotinylated antigen on streptavidin beads, flow cytometry, 1:1 fit; average ± s.d., n=3
[8] = target: T2, hFz: Fz domain and C-terminal flanking …; assay: as above
[9] = target: T5, mECD: full-length extracellular region …; assay: as above
[10] = target: T6, hECD: full-length extracellular region …; assay: as above
mouse MuSK [11] = target: T3, mouse MuSK; assay: Biacore T200, MuSK on chip (200RU), 22.2 nM Fab, dissociation pH 5.5
Protocol: as §1

human MuSK [12] = target: T4, human MuSK; assay: as above
Protocol: as §1

[13] = target: T1, mFz: Fz domain and C-terminal flanking …; assay: bead-binding assay, IgG format: biotinylated antigen on streptavidin beads, flow cytometry, 1:1 fit; average ± s.d., n=3
[14] = target: T2, hFz: Fz domain and C-terminal flanking …; assay: as above
[15] = target: T5, mECD: full-length extracellular region …; assay: as above
[16] = target: T6, hECD: full-length extracellular region …; assay: as above
[17] = target: T1, mFz: Fz domain and C-terminal flanking …; assay: bead-binding titration, IgG format: antigen immobilized on streptavidin beads, MFI by flow cytometry, curve is the 1:1 fit
[18] = target: T5, mECD: full-length extracellular region …; assay: as above

Row | Binder | EC50 (read off the curve) [1] [nM] | EC50 (read off the curve) [2] [nM] | koff (mouse MuSK [3]) [s⁻¹] | koff (human MuSK [4]) [s⁻¹] | Ratio pH 5.5/7.4 of off rate (mouse MuSK [5]) | Ratio pH 5.5/7.4 of off rate (human MuSK [6]) | Kd [7] [nM] | Kd [8] [nM] | Kd [9] [nM] | Kd [10] [nM] | koff (mouse MuSK [11]) [s⁻¹] | koff (human MuSK [12]) [s⁻¹] | Kd [13] [nM] | Kd [14] [nM] | Kd [15] [nM] | Kd [16] [nM] | EC50 (read off the curve) [17] [nM] | EC50 (read off the curve) [18] [nM]
1 | B1 | ~0.3 | ~0.4 | 0.0012 | 0.00088 | 1.7 | 7.7 | 0.47 | 0.38 | 0.63 | 0.52 | 0.002 | 0.00678 | – | – | – | – | – | –
2 | B2 | – | – | – | – | – | – | – | – | – | – | – | – | 0.096 | 0.079 | 0.118 | 0.113 | ~0.1 | ~0.1
3 | B3 | – | – | – | – | – | – | – | – | – | – | – | – | 0.265 | 0.421 | 0.307 | 0.478 | ~0.3 | ~0.4
4 | B4 | – | – | – | – | – | – | – | – | – | – | – | – | 0.07 | 0.057 | 0.079 | 0.074 | ~0.07 | ~0.08
